Results from publication PMC2714181.

Key:
Cys89 = Cys89 (UniProt position 89, DADNNCPILPP); test: UV-vis; settings: poly buffer: 1 mM EDTA, 10 mM Na-borate, 10 mM Na-phosphate, 10 mM Na-citrate, 10 mM CAPS (starting pH 11.4), titrated by stepwise addition of 100 mM HCl; reduced (DTT-treated, DTT removed), free protein
Cys10 = Cys10 (UniProt position 10, TIYFICTGNSA); test: UV-vis; settings: poly buffer: 1 mM EDTA, 10 mM Na-borate, 10 mM Na-phosphate, 10 mM Na-citrate (starting pH 8), titrated by stepwise addition of 100 mM HCl; oxidized with arsenate (Cys82-Cys89 disulfide), Cys10 free thiol
Cys32 = Cys32 (UniProt position 33, FWAEWCGPCKM); settings: reduced active-site thiol(s) implied, not stated; cited from earlier work
Cys29 [1] = biological target: Cys29 (UniProt position 29, FWATWCGPCKM); settings: reduced active-site thiol(s) implied, not stated; cited from earlier work
Cys29 [2] = biological target: Cys29 (UniProt position 29, FWATWCGTSKM); settings: reduced active-site thiol(s) implied, not stated; cited from earlier work

Arsenate reductase ArsC (plasmid pI258), C10S/C15A/C82A triple mutant (Sa_ArsC^Trip) (Staphylococcus aureus; C10S;C15A;C82A)
pKa (Cys89): 9.5

Arsenate reductase ArsC (plasmid pI258), C15A, oxidized form (Staphylococcus aureus; C15A)
pKa (Cys10): 6.8

Thioredoxin 1 (Ec_Trx1) (Escherichia coli)
pKa (Cys32): 7.1

Thioredoxin (Sa_Trx), wild type (Staphylococcus aureus)
pKa (Cys29 [1]): 7.1

Thioredoxin (Sa_Trx, Trx1) P31T/C32S (Staphylococcus aureus; P31T;C32S)
pKa (Cys29 [2]): 6.4
